# According to PMC4296922 (ACS Applied Materials & Interfaces, 2014):
# Like-named read-outs stand apart in the source and are kept apart here.
# How the values were obtained:
# [1] = target: T1, aerolysin pore (activated aerolysin in a planar lipid bilayer) (UniProt P09167 24-445); assay: single-channel nanopore current recording
# [2] = target: T1, aerolysin pore (activated aerolysin in …); assay: single-channel nanopore current recording; remark: listed apart in the source
# T1 sequence (P09167 24-445): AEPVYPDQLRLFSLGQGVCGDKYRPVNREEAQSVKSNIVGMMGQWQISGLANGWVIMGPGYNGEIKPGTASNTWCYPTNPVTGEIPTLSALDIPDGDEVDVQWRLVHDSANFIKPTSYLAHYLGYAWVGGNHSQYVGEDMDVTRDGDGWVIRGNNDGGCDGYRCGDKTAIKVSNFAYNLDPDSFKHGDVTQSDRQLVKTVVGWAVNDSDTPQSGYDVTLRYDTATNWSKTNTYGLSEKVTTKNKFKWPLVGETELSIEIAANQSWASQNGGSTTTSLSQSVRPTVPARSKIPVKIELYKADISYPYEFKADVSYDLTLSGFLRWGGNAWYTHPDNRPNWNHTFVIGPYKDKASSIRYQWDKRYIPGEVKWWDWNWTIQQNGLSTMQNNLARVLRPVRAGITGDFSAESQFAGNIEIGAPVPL
binder,measurement,setting,value
QFETSAAKLKRKYWWKNL [synthetic peptide Sb2(76-93)s],kon,[1],8.7e+06 M⁻¹ s⁻¹
same,kon,[2],8.1e+07 M⁻¹ s⁻¹
